Reference: the nanobody polyreactivity screen of Harvey et al. (2022)

Experiment: yeast display, Sf9 membrane polyspecificity reagent, FACS + sequencing; frameworks hold sequencing errors
Summary of the method: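 A synthetic nanobody library was expressed on Saccharomyces cerevisiae BJ5465 by galactose induction for 36–48 hours. The library was stained for 1 hour at 4 °C with 10% biotinylated, detergent-solubilized Sf9 membrane reagent and enriched with streptavidin microbeads before FACS. Low and high (top ~1%) gates were set on anti-HA fluorescence for expression and streptavidin fluorescence for reagent binding, and each polyreactivity label reflects the gate of origin.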
With “QVQLVESRRGLVQAGGSLRLSCAGSGRIVSDYAMGWYRQAPGKERELVATITSGDSTNYADSVKGRFTISRDNAKNTVYLQMNSQKPEDTAVYYCNADRFADYDYWGQGTQVTVSS” the “polyreactivity (PSR sort gate)” value was “low polyreactivity”. For “QVQLVESRVGLVQAGGSLRLSCAASGIIFTLYAMGWYRQAPGKERELVAGIDASGGSTSYADSVKGRFTISRDNAKNTVYLQMNSLKPEVTAVYYCAARILPYGYDYWGQGTQVTVSS”, the “polyreactivity (PSR sort gate)” value was “low polyreactivity”. In the case of “QVQLVESRWRFVQAGGSLRLSCAASGSIFADYAMGWYRQATGKERELVAAITFSGGSTYYADSVKGRFTISRDNENNTVYLQMNSLKPEDTAVYYCAARWRYRYYSWGQGTQVTVSS”, the “polyreactivity (PSR sort gate)” value was “high polyreactivity”. With “QVQLVESSGGLVQAGCSLRLSCAASGFTFGYYAMGWYRQAPGKERELVAAISRSGGRTYYADSVKGRFTISRDKAKNTVYLQMNSLNPEDTAVYYCAAWYVPGYLVDSDYWGQGTQVTVSS” the “polyreactivity (PSR sort gate)” value was “high polyreactivity”. In the case of “QVQLVESVAGLVQAGGSLRLSCAASGSIFRFYAMGWYRQAPGKERELVAGITWSGASTYYADSVKGRFTISRDNAKNTVYLQMNSLKPEDTAVYYCAKRYRLDGFYYWGQGTQVTVSS”, the “polyreactivity (PSR sort gate)” value was “high polyreactivity”. For “QVQLVESVGCLVQAGGSLRLICAASGSIFVDYAMGWYRQAPGKERELVAAISSGGGSTYYADSVKGRFTISRDNSKYTVYLQMNSLKPEDTAVYYCATDLQPRSFLYWYNYWGQGTQVTVSS”, the “polyreactivity (PSR sort gate)” value was “low polyreactivity”. In the case of “QVQLVESVGCLVQAGGSLRLSCAASGNIITNNAMGWYRQAPGKERELVAAITRGGNTNYADSVKGRFTISRDNAKKTVYLQMKSLKPEDTAVFYCAADRYVELLGYFFEYDYWGQGTQVTVSS”, the “polyreactivity (PSR sort gate)” value was “low polyreactivity”. With “QVQLVESVGDLVQEGGSLRLSCAASGRIFYWYAMGWYRQAPGKETELVAAITSGGSTYYADSVKGRFTISRDNAKNTVYLQMNSLKPEDTAVYYCAKPFSSNSCSHGYWGQGTQVTVSS” the “polyreactivity (PSR sort gate)” value was “low polyreactivity”. With “QVQLVESVGGLDQAGGSLRLRCAASGFIVGYYAMGWYRQAPGKEWEFVAAISWTGGNTYYADSVKGRFTISRDNAKNTVSLQLNSLKPEDTAVYYCNVVVSGYADRDGYNYWGQRTQVTVSS” the “polyreactivity (PSR sort gate)” value was “high polyreactivity”. With “QVQLVESVGGLDQAGGSLRLSCAASGRIFRQNAMGWYRQAPGKERELVAAISRSGGSTYYADSVKGRFTISRDNAKNTVYLQMNSLKPEDTAVYYCNRDYQSQRTYPRRYDYCGQGTQVTVSS” the “polyreactivity (PSR sort gate)” value was “low polyreactivity”. For “QVQLVESVGGLDQAGGSLRLSCAASGRTFYRNAMGLYRQAPGKERELVSAITGSGGSTYYADSVKGRFTISRDNAKNTVYLQMNSLKPEDTAVYYCAAGTRIYNSLIGFDYWGQGTQVTVSS”, the “polyreactivity (PSR sort gate)” value was “high polyreactivity”. With “QVQLVESVGGLVEAGGSLRLSCAASGSILGGYAMGWYLQAPGKESELVAAITSSGGRTYYADCVKGRFTMSRDNAKNTVYLQMNSLKPEDTAVYYCAARYSRWRYNYKDYAYWGQGTQVTVSS” the “polyreactivity (PSR sort gate)” value was “high polyreactivity”. With “QVQLVESVGGLVKAGGSLRLSCAASGSTFRYYSMGWYRPAPGKERELVAGITTGGGRTYYADSVKGRFTISRDNAMNTVYLQMNSLKPEDTAVYSCAADRYSHYWYRNSYDYWGQGTQVTVSS” the “polyreactivity (PSR sort gate)” value was “high polyreactivity”. In the case of “QVQLVESVGGLVQAGASLRLSCAASGFTIDRYAMGWYIQAPAKERELVAAISGSGGRTYYADSVKGRFTISRDNAKNTVYLQMNSLKPEVTAVYYCAAVYLVTRGARYDYCGQGTQVTVSS”, the “polyreactivity (PSR sort gate)” value was “high polyreactivity”. In the case of “QVQLVESVGGLVQAGASLRLSCAASGSIFGYNPMGWYRQAPGKERELVAVINASGASTYYADSVKGRFTISRDNAKNTVYLQMNSLKPEDTAVYYCAKDPFPFPGGDYWGQGTQVTVSS”, the “polyreactivity (PSR sort gate)” value was “low polyreactivity”. With “QVQLVESVGGLVQAGASLRLSCAASGSTFDYYAMGSYRQAPGKERELVAAISRTGGRTYYADSVKGRFTISRDNAKNTVYLQMNSLKPEDTAVYYCNAVTRIGGGDYDYWGQGTQVTVSS” the “polyreactivity (PSR sort gate)” value was “low polyreactivity”. For “QVQLVESVGGLVQAGCSLRLSCAASGSIIRTNTMGWYRQAPGKEREFVAAISRSGGSTYYADSVKGRFTISRDNAKNTVYLQMNSLKPEDTAGYYCNARWGLGSYGYWGQGTQVTVSS”, the “polyreactivity (PSR sort gate)” value was “high polyreactivity”. With “QVQLVESVGGLVQAGDSLPLSCAPSAYIFRAYAMGWFRQAPGKASELVAAISSRGGSTYYADSVKGRFTISRDNATQTVYLQMNSLKPEDTAVYYCAAAYRQPYIGYGYWGQGTQVTVTS” the “polyreactivity (PSR sort gate)” value was “high polyreactivity”. For “QVQLVESVGGLVQAGGILRLSCAASGSIFRSYAMGWYRQAPGKERELVAAIRSDGRTNYADSLKGRFTISRDNAKNTVYFPMNRLKPEDTAVYYCAAKAYYSYWRSMDYWGQGTQVTVSS”, the “polyreactivity (PSR sort gate)” value was “low polyreactivity”. For “QVQLVESVGGLVQAGGRLRLSCDASGFIFANYAMGWYRQATGKERELVAAITSGTGTNYADSVKGRFTISRDNAKNTVYLQMNSLKPEDTAVYYCAAYYTWLSEFGYWGQGTQVTVSS”, the “polyreactivity (PSR sort gate)” value was “low polyreactivity”. With “QVQLVESVGGLVQAGGSLLLSCAASGGIFWVYALGWYRQAPGKVRELVAAISYDTTSTYYADSVKGRFTISRDNAKNTVYLQMNRLKPEDTAVYYCNKTTLLTVEYDYGGQGTQVTVSS” the “polyreactivity (PSR sort gate)” value was “low polyreactivity”. In the case of “QVQLVESVGGLVQAGGSLPLSCAASGFTFSDYAMGWYRQAPGKESELVAGISSGGYTNYADSVKGRFTISRDNAKNTVYLQMNSLKPEDTAVYYCAAAYYSKFGYWGKGTQVTVSS”, the “polyreactivity (PSR sort gate)” value was “high polyreactivity”. With “QVQLVESVGGLVQAGGSLRISSAASGRTFERNTKGWYRQAPGKERELVAAITYDGGSTYYADSVKGRFTISRDNAKKTVYLKMNSLKPEDTAFYYCNAGGYEIYRSPFDYWGQGSQVTVSS” the “polyreactivity (PSR sort gate)” value was “low polyreactivity”. For “QVQLVESVGGLVQAGGSLRLICAASGRTFRGYAMGWYRQAPGKERELVAAISSSGGRTYYADSVKGRFTISRDNAKNTVYLQMNSLKPEDTAVYYCAAAVTLSPAQYGYWGQGTQVTVSS”, the “polyreactivity (PSR sort gate)” value was “high polyreactivity”. For “QVQLVESVGGLVQAGGSLRLICAASGYTFSRNAMGWYRPAPGKERELVAVISSGGSTYYADSVKGRFTISRDNAKNTVYLQMNSLKPEDTAVYYCNTGVYRYGYWYDYWGQGTQVTVSS”, the “polyreactivity (PSR sort gate)” value was “high polyreactivity”. With “QVQLVESVGGLVQAGGSLRLRCAASGRTFGVYAMGWYRQAAGKESEFVATITSRGGRTYSADSVKGRFTISRDNAKKTVYLQMNSLIPEDTAVYYCAAQVGRNGVSEYDYWGQGTQVTVSS” the “polyreactivity (PSR sort gate)” value was “high polyreactivity”. In the case of “QVQLVESVGGLVQAGGSLRLSCAASGFIFGYNAMGWYRQAPGKERELVAAITSRGDRTYYADSVKGRFTISRDNAKNTVYLQMNSLKPEDTAVYYCAKATRGYRSPYCSIGYYYWGQGTQLTVSS”, the “polyreactivity (PSR sort gate)” value was “high polyreactivity”. For “QVQLVESVGGLVQAGGSLRLSCAASGFIFKGNAMGWYRQAPGKERELVAAITNRGGGTYYADSVKGRFTISRDNAKNTVYLQMNSLKPEDTAVYYCAKAYTRPFHPYDYWGQGTQVTVSS”, the “polyreactivity (PSR sort gate)” value was “high polyreactivity”. In the case of “QVQLVESVGGLVQAGGSLRLSCAASGFIFNWYAMGWYRQAPGKERELVAAITSGGSTNYADSVKGRFTISRDNAKNTVYLQMNSLKPEDTAVYYCAARDWRRYGYWGQGTQVTVSS”, the “polyreactivity (PSR sort gate)” value was “high polyreactivity”. In the case of “QVQLVESVGGLVQAGGSLRLSCAASGFIFSQYAMGWDRKAPGKERELVAAISKSGGRTYYADSVKGRFTFSRDNAKNTVYLQMNSLKPEDTAVYYCAAVSYSSYRYDYWGQGTQVTVSS”, the “polyreactivity (PSR sort gate)” value was “high polyreactivity”. With “QVQLVESVGGLVQAGGSLRLSCAASGFIFYGYAMGWYRQAPGKERELVAAISRSGTSTYYADSVKGRFTISRDNAKNTVYLQMNSLKPEDTAVYYCAADYVGWKWGSRGAIYKHYYWGQGTQVTVSS” the “polyreactivity (PSR sort gate)” value was “high polyreactivity”. In the case of “QVQLVESVGGLVQAGGSLRLSCAASGFIFYSNAMGWYRKAPGKERELVAAISRSGGSTYYADSVKGRFTISRDNAKNTVYLQMNSLKPEDTAVYYCNVYCYDWWGYDYWGQGTQVTVSS”, the “polyreactivity (PSR sort gate)” value was “high polyreactivity”. For “QVQLVESVGGLVQAGGSLRLSCAASGFIFYYNTMGWYRQAPGKERELVAAISSGGRTYYADSVKGRFTISRDNAKNTVYLQMNSLKPEYTAVYYCNVVTYVKYGYWGQGTQVTVSS”, the “polyreactivity (PSR sort gate)” value was “high polyreactivity”. With “QVQLVESVGGLVQAGGSLRLSCAASGFNFDYYTMGWYRQAPGKEREFVAAINRRGDITYYADSVKGRFTISRDNAKNTVYLQMNSLKPEDTAVYYCAANLTCSSRYEYGYWGQGTQVTVSS” the “polyreactivity (PSR sort gate)” value was “low polyreactivity”. In the case of “QVQLVESVGGLVQAGGSLRLSCAASGFNFPGYAMGWYRPAPGKERELVAAITGSGGRTYYADSVKGRFTISRDNAKNTVYLQMISLKPEDTAVYYCLARSYYNWYDYWGKGTQVTVSS”, the “polyreactivity (PSR sort gate)” value was “high polyreactivity”. In the case of “QVQLVESVGGLVQAGGSLRLSCAASGFNFSAYAMGGYRQAPGKESELVAAISWSGSRTYYADSVKGRFTISRDNAKNTVYLQMNSLKPEDTAVFYCAKEPYDTFGFYEYDYWGQGTQVTVSS”, the “polyreactivity (PSR sort gate)” value was “low polyreactivity”. With “QVQLVESVGGLVQAGGSLRLSCAASGFTFANYAMGWYRQAPGKERELVAAITWSGGRTYYADSVKGRFTISRDNAKNTVYLQMNSLKQEYTAVYYCAAGLGTLYGYWGQGTQVTVSS” the “polyreactivity (PSR sort gate)” value was “high polyreactivity”. In the case of “QVQLVESVGGLVQAGGSLRLSCAASGFTFLWYAMGWYRQAPGKEWELVAAINSSGVRTYYADSVKGRFTISRDNAKNTVYLLMNSLKPEDTAVYYCAAYQKTYTEDEYWGQGTQVTVSS”, the “polyreactivity (PSR sort gate)” value was “high polyreactivity”. For “QVQLVESVGGLVQAGGSLRLSCAASGFTFTYNAMGWYRQAPGKERELVAAISRNGGRTYYADSVKGRFTISRDNAKNTVYLQMNSLKPEDTAVYYCNAVYYYYYWRVSIYDYWGQGTQVTVSS”, the “polyreactivity (PSR sort gate)” value was “high polyreactivity”. In the case of “QVQLVESVGGLVQAGGSLRLSCAASGFTFWIYAMGWYRQAPGKERELVAVISRGGSTYYADSVKGRFTISRDNAKNTVYLQMNSLKPEDTAVYYCAAYWRSRNRFYWGQGTQVTVSS”, the “polyreactivity (PSR sort gate)” value was “high polyreactivity”. With “QVQLVESVGGLVQAGGSLRLSCAASGGTFFYNSMGWYRQAPGKEREFVAAINGGTSTNYADSVKGRFTISRDNAKNTVYLQMNSLKPEDTAVYYCAAVYRRLGRFDWYDYWGQGTQVTVSS” the “polyreactivity (PSR sort gate)” value was “low polyreactivity”.
